Source: patent publication US20070134236A1 (Biogen, published 2007)
Residue numbers refer to the chain shown, from its start.

T1: human MCP-2 (human, UniProt P80075 24-99)
T1 construct: also called hMCP-2; huMCP-2
T1 sequence (looked up): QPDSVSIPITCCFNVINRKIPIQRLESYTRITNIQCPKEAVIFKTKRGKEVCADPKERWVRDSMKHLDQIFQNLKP

T2: human DC-CK (human, UniProt P55774 21-89)
T2 sequence (looked up): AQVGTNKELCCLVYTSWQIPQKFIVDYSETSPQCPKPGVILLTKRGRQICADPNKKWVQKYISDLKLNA

T3: human fractalkine (human, UniProt P78423 25-100, limits assumed)
T3 sequence (looked up): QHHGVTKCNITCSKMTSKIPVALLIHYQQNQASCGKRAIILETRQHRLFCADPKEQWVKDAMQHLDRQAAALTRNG

B1: Fab fragment of chimeric 11K2 (Fab, V domains shown)
VH: EVQLQQSGAELVKAGASVKLSCPASGLNIKDTYMHWVKQRPEQGLEWIGRIDPANGNTKFDPKFQGKATITADTSSNTAYLQLSSLTSEDTAVYYCARGVFGFFDYWGQGTTLTVSS
VL: DIQMTQSSSSFSVSLGDRVTITCKATEDIYNRLAWYQQKPGSAPRLLISGATSLETGVPSRFSGSGSGKDYTLSITSLQTEDVATYYCQQFWSAPYTFGGGTKLEIKR
notes: also called Ch11K2
B2: Fab fragment of humanized 11K2 H1L1 (Fab, V domains shown)
VH: QVQLVQSGAEVKKPGSSVKVSCKASGLNIKDTYMHWVRQAPGQGLEWIGRIDPANGNTKFDPKFQGRATITADTSTSTAYMELSSLRSEDTAVYYCARGVFGFFDYWGQGTTVTVSS
VL: DIQMTQSPSSLSASVGDRVTITCKATEDIYNRLAWYQQKPGKAPKLLISGATSLETGVPSRFSGSGSGKDYTLTISSLQPEDFATYYCQQFWSAPYTFGGGTKVEIKR
B3: Fab fragment of humanized 11K2 H2L1 (Fab, V domains shown)
VH: B2 VH with N28T, K30S, I48M, A68V
VL: B2 VL
B4: Fab fragment of humanized 11K2 H1L2 (Fab, V domains shown)
VH: B2 VH
VL: B2 VL with K69T
B5: Fab fragment of humanized 11K2 H2L2 (Fab, V domains shown)
VH: B2 VH with N28T, K30S, I48M, A68V
VL: B2 VL with K69T
B6: humanized 11K2 H1-L2 (antibody, human IgG1, V domains shown)
VH: B2 VH
VL: B2 VL with K69T
notes: human IgG1 kappa
B7: humanized 11K2 H2-L2 (antibody, human IgG1, V domains shown)
VH: B2 VH with N28T, K30S, I48M, A68V
VL: B2 VL with K69T
notes: human IgG1 kappa
B8: monoclonal antibody 4N4 (antibody, mouse IgG1, V domains shown)
VH: B1 VH
VL: DIQMTQSSSSFSVSLGDRVTITCKATEDIYNRLAWYQQKPGSAPRLLISGATSLETGVPSRFSGSGSGKDYTLSITSLQTEDVATYYCQQFWSAPYTFGGGTKLEIK
notes: mouse IgG1; also called 4N4.1
B9: monoclonal antibody 7H1 (antibody, mouse IgG1, V domains shown)
VH: B1 VH
VL: B8 VL
notes: mouse IgG1; also called 7H1.1
B10: monoclonal antibody 6D21 (antibody, mouse IgG1, V domains shown)
VH: B1 VH
VL: B8 VL
notes: mouse IgG1; also called 6D21.1
B11: monoclonal antibody 5A13 (antibody, mouse IgG1, V domains shown)
VH: B1 VH
VL: B8 VL
notes: mouse IgG1; also called 5A13.1
B12: monoclonal antibody 6I5 (antibody, mouse IgG1, V domains shown)
VH: B1 VH
VL: B8 VL
notes: mouse IgG1; also called 6I5.1; 615

molecular target: T1, human MCP-2; assay: KinExA, in solution, Fab
Method: (§1) 1 ml of MCP-1 at a concentration of 10 μg/ml in NaHCO₃ was added to an amount of beads equivalent to 1 ml of the original slurry. The beads were rocked overnight at 4° C. Beads were spun down and washed once with 1M Tris, pH 8.0, then resuspended in 1M Tris pH 8.0 with 1% BSA, 0.02% azide. The beads were rocked at room temperature for one hour then stored at 4° C. in this buffer for the duration of the experiments.
(§2) The KinExA 3000 measures protein-protein interaction in solution, and is ideally suited for measuring affinities of antibodies to antigens. In the typical experiment, antigen (MCP) is immobilized on a bead, antibody is flowed over a column of these beads at a given concentration, and the antibody that binds to the beads is detected using a fluorescent secondary. Antibody at a fixed concentration is then incubated with different concentrations of antigen in solution and the amount of free antibody is measured by flowing the mixture over the bead column quickly enough that no re-equilibration occurs between solution and solid phase. The amount of antibody remaining free is plotted against the concentration of antigen added and the data are fit to a quadratic equation to determine the affinity of the interaction in solution.
(§3) In these experiments, the only difference to the typical experiment described above is that instead of using intact antibody, a Fab fragment of 11K2 was used. Earlier KimExA experiments using the intact murine 11K2 mAb binding to MCP-1 and MCP-2 gave biphasic curves that the software could not interpret. This may be due to these proteins acting as dimers, so to eliminate the dimer/dimer interaction we generated Fab fragments. The binding of the 11K2 Fab fragments to MCP-1 and MCP-2 produced curves that the KinExA software could fit.

Kd [nM] | Binder
0.226 | B1
0.725 | B2
0.94 | B3
0.712 | B4
3.2 | B5

molecular target: T4, human MCP-1 (human, UniProt P13500 24-99); assay: KinExA, in solution, Fab
T4 construct: also called hMCP-1; huMCP-1
Method: as §1, §2, §3

Kd [nM] | Binder
0.0196 | B1
0.0364 | B2
0.064 | B3
0.0623 | B4
0.0775 | B5

molecular target: T4, human MCP-1; assay: ELISA on plate-coated human MCP-1, anti-human IgG-HRP; y axis unlabelled, OD 405 nm per paragraph 382
Method: Binding specificities of chimeric 11K2 and the four versions of humanized 11K2 (H1-L1, H1-L2, H2-L1, and H2-L2) were determined by ELISA, according to the protocol described in Example 1.
ELISA plates (Corning, Inc. Cat#3369) were coated with 50 ng MCP-1 per well overnight at 4° C. Plates were washed then blocked with PBS/5% milk for 1.5 hrs at 25° C. Another wash was followed by incubation with the 11K2 mAbs (or 3G9 isotype control) at the concentrations indicated for 1 hr at 25° C. After washing, the plates were incubated with secondary antibody (anti-human IgG-HRP, Jackson Immunoresearch Cat#109-036-088) for 1 hr at 25° C. Plates were then washed and developed using the ABTS Peroxidase Substrate Kit (Vector Laboratories Cat#SK-4500). OD (405 nm) values were plotted as a function of 11K2 mAb concentration.

EC50 (read off the curve) [µg/mL] | Binder
~0.02 | B6
~0.02 | B7

molecular target: T2, human DC-CK; assay: ELISA, supernatant
Method: (§4) MaxiSorp 384 well plates were coated with 15-20 μl antigen in PBS. Recombinant purified human antigens included: MCP-1, MCP-2, MCP-3, MCP-4, IL-8, eotaxin, fractalkine, Gcp-2, DC-CK (Gcp-2 and DC-CK are also chemokines). Plates were incubated with antigen for 2 hours at 37° C. or overnight at 4° C. Non-specific sites were blocked with 80 μl/well of 1% BSA/PBS for 1 hour at room temperature. Plates were washed and 15 μl of hybridoma supernatant was added to each well and incubated for 1 hour at room temperature. Plates were washed and wells were incubated with 20 μl/well of a 1:25 000 dilution of goat anti-mouse IgG peroxidase conjugate (Jackson Catalog Number 515-036-003). Plates were incubated for 1 hour at room temperature, washed, and 20 μl/well of substrate (TMB, tetramethylbenzidine, Jackson, Catalog Number 515-036-062) was added. Reaction was allowed to proceed and stopped by addition of 20 μl/well of 2M H₂SO₄. Reactive clones were picked for further analysis. Isotyping of hybridoma supernatants was performed by antigen-dependent ELISA. Briefly, wells were coated with 50 μl of human MCP-1 (5 μg/ml) for 1 hour at 37° C. Wells were washed 4 times and blocked with PBS/1% BSA. Isotyping of hybridoma supernatants was then performed using a mouse immunoglobulin screening/isotyping kit (Zymed Laboratories, San Francisco, —CA) as recommended by the manufacturer.

binding result | Binder
no binding | B8
no binding | B9
no binding | B10
no binding | B11
no binding | B12

molecular target: T3, human fractalkine; assay: ELISA, supernatant
Method: as §4

binding result | Binder
no binding | B8
no binding | B9
no binding | B10
no binding | B11
no binding | B12

molecular target: human Gcp-2 (human, UniProt P80162 38-114, limits assumed); assay: ELISA, supernatant
Method: as §4

binding result | Binder
no binding | B8
no binding | B9
no binding | B10
no binding | B11
no binding | B12

molecular target: T5, human MCP-3 (human, UniProt P80098 24-99); assay: ELISA
T5 construct: also called hMCP-3

binding result | Binder
no binding | B6
no binding | B7

molecular target: T1, human MCP-2; assay: ELISA on immobilised MCP-2, absorbance 450 nm

EC50 (read off the curve) [µg/mL] | Binder
~0.3 | B6
~0.3 | B7

molecular target: T6, human IL-8 (human, UniProt P10145 28-99, limits assumed); assay: ELISA, purified mAb
T6 construct: also called hIL8
Method: (§5) ELISA specificity assays were performed using purified monoclonal antibodies to confirm the binding specificities of the supernatant MCP-specific monoclonal antibodies described above. Antibodies were purified by Protein A affinity column chromatography, according to standard methods known in the art.
(§6) ELISA was performed as previously described in Example 1. Briefly, MaxiSorp 384 well plates were coated with 15-20 μl antigen in PBS. Recombinant purified human antigens included: MCP-1, MCP-2, MCP-3, MCP-4, IL-8, eotaxin, murine MCP-1 (JE), murine MCP-3, murine MCP-5, and rat MCP-1. All antigens, including MCP-3, were immobilized. Plates were washed and purified monoclonal antibody (10 μg/ml) was added to each well and incubated for 1 hour at room temperature. Plates were washed and wells were incubated with 20 μl/well of a 1:25,000 dilution of goat anti-mouse IgG peroxidase conjugate (Jackson Catalog Number 515-036-003). Plates were incubated for 1 hour at room temperature, washed, and 20 μl/well of substrate (, tetramethylbenzidine, Jackson, Catalog Number 515-036-062) was added. Reaction was allowed to proceed and stopped by addition of 20 μl/well of 2M H₂SO₄. Antibodies 1A1 bound specifically to hMCP-1, hMCP-2, hMCP-3, and mMCP-1. Antibodies 11K2, 4N4, 5A13, 6D21, 615, and 7H1 bound specifically to hMCP-1, hMCP-2, hMCP-3, mMCP-1, mMCP-3, and mMCP-5.

binding result | Binder
no binding (tested: 10 µg/ml) | B8
no binding (tested: 10 µg/ml) | B9
no binding (tested: 10 µg/ml) | B10
no binding (tested: 10 µg/ml) | B11
no binding (tested: 10 µg/ml) | B12

molecular target: T7, human eotaxin (human, UniProt P51671 24-97); assay: ELISA, purified mAb
T7 construct: also called hEotaxin
Method: as §5, §6

binding result | Binder
no binding (tested: 10 µg/ml) | B8
no binding (tested: 10 µg/ml) | B9
no binding (tested: 10 µg/ml) | B10
no binding (tested: 10 µg/ml) | B11
no binding (tested: 10 µg/ml) | B12

molecular target: T8, human MCP-4 (human, UniProt Q99616 24-98, limits assumed); assay: ELISA, purified mAb
T8 construct: also called hMCP-4
Method: as §5, §6

binding result | Binder
no binding (tested: 10 µg/ml) | B8
no binding (tested: 10 µg/ml) | B9
no binding (tested: 10 µg/ml) | B10
no binding (tested: 10 µg/ml) | B11
no binding (tested: 10 µg/ml) | B12
